This note sets out measurements from the supplement of paper PMC10567573.

± gives the standard deviation.

A short description of the series: protein stability index of a GFP-peptide fusion (GPS, HEK-293T) (PSI 1-6); higher = more stable.
The mark [1] stands for this setting: treatment: DMSO, c terminus: a fixed tail appended.
The mark [2] stands for this setting: treatment: MLN4924 1 uM, 8 h, c terminus: a fixed tail appended.
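Also: 24-mer peptide tiles fused after GFP, lentivirally expressed, FACS-sorted into six equal bins by GFP/DsRed ratio, decoded by Illumina sequencing, PSI is the read-weighted mean bin number.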

PYMNPSPFTVSPNTHVSQVFNLFR [CLCN6] had a protein stability index under setting [1] of 2.64 ± 0.16 and a protein stability index under setting [2] of 2.73 ± 0.2.
PYQALRLWARGTWTQATGLGCALL [SOAT2]: the protein stability index was 2.09 ± 0.46 under setting [1] and 2.05 ± 0.3 under setting [2].
The corresponding values for PYQCSQCSKSYSRRSFLIEHQRSH [ZSCAN9] are 4.3 ± 0.2 and 4.45 ± 0.43.
With QAIYVIDFFWNETWYLKTIDICHD [DHCR7], the protein stability index worked out at 3.14 ± 0.37 under setting [1] and 3.25 ± 0.4 under setting [2].
Take QARTQKLQGLIPGARYEVTVVSVR [TNXB]: under setting [2], the protein stability index stood at 2.22 ± 0.42.
As to QASCDEAHKMKFSDLFSLAEEYED [INTS3], the protein stability index by setting is: under setting [1], 4.61 ± 0.23; under setting [2], 4.77 ± 0.27.
Consider QATKASLKERFAFLFNSELLSDVR [BTBD1], for which the protein stability index by setting is: under setting [1], 2.55 ± 0.22; under setting [2], 2.67 ± 0.34.
QCGPQTGLQSPGTLQPPEFLYSHG [TBX5]: the protein stability index reads like this: under setting [1], 3.41 ± 0.25; under setting [2], 3.37 ± 0.34.
With QEELNRKAEELDRRERELQHAALG [SCAMP3], the protein stability index was found to be 5.39 ± 0.21 under setting [1] and 5.24 ± 0.55 under setting [2].
The corresponding values for QEIMEKYNIKLKWTNQQKLYSRTG [CFHR2] are 2.45 ± 0.32 and 2.66 ± 0.35.
The corresponding values for QELLERGLLQLDHRGLRCSWEGLA [RSAD1] are 2.31 ± 0.2 and 2.6 ± 0.23.
QEVSSVRSLSSTGSLPSHAPPSED [DLC1]: the protein stability index runs as follows: under setting [1], 5.42 ± 0.22; under setting [2], 5.44 ± 0.24.
The corresponding values for QEVVELPVTERQIEREHLIQLRRW [TBC1D10A] are 4.05 ± 0.25 and 4.22 ± 0.2.
The corresponding values for QEYESIDPGQQFTWEHSNLEVNKP [PTPRD] are 4.94 ± 0.1 and 4.93 ± 0.069.
For QFFTKGYQETISDVLNDAIFDEDH [GCH1], the protein stability index stood at 4.01 ± 0.33 under setting [1] and 3.92 ± 0.07 under setting [2].
The corresponding values for QFTSSSSIKGSSGLGGGSSRTSCR [KRT17] are 4.34 ± 0.12 and 4.33 ± 0.26.
As for QHLGEYENVLAALEGLNLSILKAM [NECAB1], the protein stability index is, setting by setting: under setting [1], 2.25 ± 0.24; under setting [2], 2.38 ± 0.23.
The corresponding values for QKELKKAQMAKAAAEERALFTDRM [WEE1] are 4.69 ± 0.19 and 4.67 ± 0.16.
Regarding QKISLLHSCTCVLYTPSNEHFGIV [ALG2], the protein stability index amounted to 2.55 ± 0.84 under setting [1] and 2.61 ± 0.8 under setting [2].
The corresponding values for QKLETDAMFRLEHGEADRSTLKKA [YJU2B] are 5.22 ± 0.22 and 5.03 ± 0.14.
For QKSPWCEARSLEHTLPVNRETLKR [ESR2], the protein stability index runs as follows: under setting [1], 4.23 ± 0.16; under setting [2], 4.41 ± 0.21.
The corresponding values for QKTRLLEDSVSRLEKEIEVLERGD [PALM] are 4.96 ± 0.069 and 5.03 ± 0.27.
The corresponding values for QLGTAGQGFSYSKSNGRGGSQAGG [MYOZ1] are 4.54 ± 0.2 and 4.93 ± 0.71.
Consider QLHKPLAEGTPRSNHSAQDSAVEN [IKZF1], for which the protein stability index is 5.35 ± 0.35 under setting [1] and 5.39 ± 0.3 under setting [2].
In the case of QLLLIKALQEKLWNVAAPLYLKQS [INTS4], the protein stability index is 3.14 ± 0.31 under setting [1] and 2.89 ± 0.18 under setting [2].
With QMVSAIVRTMQNTNDVETARCTAG [CTNNB1], the protein stability index is, setting by setting: under setting [1], 2.87 ± 0.12; under setting [2], 2.93 ± 0.3.
The corresponding values for QNIQSWSNHSWNTQTWCTQSWNNQ [NANOGP8] are 2.53 ± 0.37 and 2.61 ± 0.24.
The corresponding values for QPELPCAMAMGTPSTTERISTSGQ [PXN] are 4.72 ± 0.12 and 4.9 ± 0.17.
The corresponding values for QPHLPLLSTLAGIRVMVHGRNHTP [SCNN1D] are 2.52 ± 0.24 and 2.62 ± 0.26.
On to QPSDRLMTEKQQEEAEWESINVLL [CEP70], for which the protein stability index by setting is: under setting [1], 4.38 ± 0.11; under setting [2], 4.33 ± 0.12.
Turning to QQESESEIDSVPKTQSELASESEH [MIA2], the protein stability index by setting is: under setting [1], 5.44 ± 0.17; under setting [2], 5.62 ± 0.15.
The corresponding values for QQIGDAIRMIVRGTLGSCSSSSEC [PLK2] are 2.1 ± 0.23 and 2.08 ± 0.39.
The corresponding values for QQLRRGRYVEFNLLYDRGTKFGLF [CPOX] are 2.52 ± 0.51 and 2.56 ± 0.36.
In the case of QRARKEREKEDYLHLKRQPKRRWL [RHOBTB2], the protein stability index under setting [1] stood at 4.05 ± 0.23 and the protein stability index under setting [2] stood at 4.16 ± 0.23.
For the sequence QRFRLDNLLNMAYGVKSPLSLIAR [ELAVL3], the protein stability index under setting [1] was found to be 2.05 ± 0.14 and the protein stability index under setting [2] came to 2.19 ± 0.18.
On to QRQDPAAAQEGEDEGASAGQGPKP [GAGE1], for which the protein stability index was 5.62 ± 0.13 under setting [1] and 5.7 ± 0.14 under setting [2].
The corresponding values for QRRSMVSPNFGFMGQLLQYESEIL [DUSP5] are 2.5 ± 0.29 and 2.45 ± 0.38.
With QSIQQAMRYLRNHCLDQVGLFRKS [DLC1], the protein stability index under setting [1] came out at 2.73 ± 0.091 and the protein stability index under setting [2] stood at 2.26 ± 0.28.
In the case of QSLKGHLRNNFQKQLLSNKELILD [ZC2HC1C], the protein stability index stood at 3.08 ± 0.3 under setting [1] and 3.17 ± 0.29 under setting [2].
Regarding QSVKMKDKLKIDLLPDGRHAVVEV [TAF7L], the protein stability index by setting is: under setting [1], 2.87 ± 0.32; under setting [2], 3.06 ± 0.36.
The corresponding values for QTVPKRIPERLSIFCRDTQTVFQK [IQUB] are 2.56 ± 0.43 and 2.24 ± 0.31.
Regarding QVPVVDFQAELRQAFLAETPRGG [SNURF], the protein stability index reads like this: (treatment: DMSO, c terminus: native) 3.04 ± 0.46; (treatment: MLN4924 1 uM, 8 h, c terminus: native) 3.19 ± 0.36.
Take QVSQVKGAARLALLQGAGLDVERW [FCHSD1]: the protein stability index is, setting by setting: under setting [1], 2.89 ± 0.32; under setting [2], 3.16 ± 0.49.
The sequence QWFAMLRAEQDSEVGPQEINKEEL [GMCL1] yielded a protein stability index under setting [1] of 3.95 ± 0.43 and a protein stability index under setting [2] of 3.81 ± 0.2.
The corresponding values for QWILDKQDLLKERQKDLKFLSEEE [CCNC] are 4.43 ± 0.26 and 4.53 ± 0.097.
The corresponding values for RAGGPPRPMSEPGAGAGSSLLDVA [SMAD6] are 4.39 ± 0.39 and 4.37 ± 0.39.
The corresponding values for RCLVRCLLRREPAERLTATGILLH [TRIB3] are 2.38 ± 0.43 and 2.44 ± 0.26.
As for RDLINCCYVSRRLSQLSSHDPLWR [FBXO3], the protein stability index was found to be 2.09 ± 0.28 under setting [1] and 2.31 ± 0.29 under setting [2].
Take RDNSPFDGPGGNLAHAFQPGPGIG [MMP1]: the protein stability index under setting [1] worked out at 4.05 ± 0.39 and the protein stability index under setting [2] worked out at 4.03 ± 0.17.
Turning to REQMEQMKQRIAEENIMKSNIDKK [FAM50A], the protein stability index is, setting by setting: under setting [1], 5.08 ± 0.31; under setting [2], 5.24 ± 0.11.
As for REVRQFQFTAWPDHGVPEHPTPFL [PTPRD], the protein stability index worked out at 2.76 ± 0.24 under setting [1] and 2.97 ± 0.38 under setting [2].
The corresponding values for RFDGLPAVLGFPGFSSGRHRWQVD [TRIM15] are 2.62 ± 0.12 and 2.54 ± 0.18.
The corresponding values for RFSRQCVVDKDKRNQCRYCRLKKC [HNF4A] are 3.22 ± 0.46 and 3.5 ± 0.61.
RFVFADRERKKLVLENLEDSCVLT [TRIB3] gave a protein stability index under setting [1] of 3.18 ± 0.16 and a protein stability index under setting [2] of 3.37 ± 0.17.
The corresponding values for RGAPPPPPSRAPTAAPPPPPPSRP [WASL] are 5.11 ± 0.19 and 5.17 ± 0.2.
The corresponding values for RGLLEYFKAYIKIYQGEDLPHPKS [ATL3] are 3.18 ± 0.84 and 2.56 ± 0.88.
In the case of RGPGASGEQPEPGEAAAGGAAEEA [ACBD3], the protein stability index came to 5.54 ± 0.23 under setting [1] and 5.62 ± 0.15 under setting [2].
For the sequence RHIHHLGNQLQLNQHCLDTAFNFF [BRF1], the protein stability index was determined as 2.29 ± 0.23 under setting [1] and 2.3 ± 0.16 under setting [2].
Regarding RKRAVPCGACLTQLFFFHLFVGVD [OR3A1], the protein stability index came to 2.82 ± 0.3 under setting [1] and 2.74 ± 0.45 under setting [2].
As for RLEKAVAAAYTFLQRNPKHELTAK [P3H4], the protein stability index runs as follows: under setting [1], 2.32 ± 0.12; under setting [2], 2.49 ± 0.29.
For RLLQAQLQAQKEELQSLMHQPKGL [PBXIP1], the protein stability index is, setting by setting: under setting [1], 2.91 ± 0.14; under setting [2], 2.9 ± 0.26.
RLRASFSRKPSLKGNREDSARMSA [PLEKHN1]: the protein stability index was determined as 4.08 ± 0.21 under setting [1] and 4.21 ± 0.078 under setting [2].
Take RLSGAGPAEEAGPEGGLEEPDALD [FOXJ1]: the protein stability index was 5.51 ± 0.31 under setting [1] and 5.59 ± 0.2 under setting [2].
The corresponding values for RLSSSLQGSAVTLKTSKMALSPSA [CDC14A] are 3.5 ± 0.38 and 3.65 ± 0.32.
RNGHLATVKLLVEEKADVLARGPL [RIPK4]: the protein stability index is 3.1 ± 0.4 under setting [1] and 3.44 ± 0.19 under setting [2].
The corresponding values for RNHGILMETHKELKPLLSPSSETT [LYSMD4] are 4.49 ± 0.14 and 4.62 ± 0.3.
The corresponding values for RNKIIAATIENAQPILQIDNARLA [KRT16] are 3.35 ± 0.13 and 3.64 ± 0.14.
In turn, RNNANGVDLNRNFPDLNTYIYYNE [CPN1] yielded a protein stability index under setting [1] of 3.17 ± 0.26 and a protein stability index under setting [2] of 3.14 ± 0.28.
The corresponding values for RNTGAYTSSGLATASFRTSKYLLE [TEKT4] are 3.1 ± 0.26 and 3.16 ± 0.22.
For RPGGGRVKIESVKLDFKEKAQAKV [MAP2], the protein stability index is, setting by setting: under setting [1], 4.06 ± 0.3; under setting [2], 4.01 ± 0.25.
The corresponding values for RQDLEDRYAEHVAATQALPQDSGT [C22orf31] are 5.4 ± 0.17 and 5.46 ± 0.3.
In turn, RQGPKEPPRKSGSFHSSGEKQKQP [PBXIP1] had a protein stability index under setting [1] of 4.86 ± 0.27 and a protein stability index under setting [2] of 5.17 ± 0.15.
